Where a chain is given by its changes, count along the chain named. Names may count otherwise.
B1: D343H: modified GLD: SEQ ID NO: 1 with substitution D343H (protein, listed as Aspergillus terreus)
chain: MLGKLSFLSALSLAVAAPLSNSTSAKYDYIVIGGGTSGLAVANRLSEDPNVNVLILEAGGSVWNNPNVTNVDGYGLAFGSDIDWQYQSVNQPYGGNLSQVLRAGKALGGTSTINGMAYTRAEDVQIDAWETIGNTGWTWKNLFPYYRKSENFTVPTKSQTSLGASYEAGAHGHEGPLDVAFTQIESNNLTTYLNRTFQGMGLPWTEDVNGGKMRGFNLYPSTVNLEEYVREDAARAYYWPYKSRPNLHVLLNTFANRIVWDGEAHDGHITASGVEITSRNGTVRVINAEKEVIVSAGALKSPAILELSGIGNPSVLDKHNIPVKVNLPTVGENLQDQVNSHMHASGNTSISGTKAVSYPDVYDVFGDEAESVAKQIRANLKQYAADTAKANGNIMKAADLERLFEVQYDLIFKGRVPIAEVLNYPGSATSVFAEFWALLPFARGSVHIGSSNPAEFPVINPNYFMLDWDAKSYVAVAKYIRRSFESYPLSSIVKESTPGYDVIPRNASEQSWKEWVFDKNYRSNFHPVGTAAMMPREIGGVVDERLNVYGTTNVRVVDASVLPFQVCGHLVSTLYAVAERAADLIKADAGRR
modifications: SIGNAL (1)..(19)
B2: D343Y: modified GLD: SEQ ID NO: 1 with substitution D343Y (protein, listed as Aspergillus terreus)
chain: B1 chain with H343Y
modifications: SIGNAL (1)..(19)
B3: D343K: modified GLD: SEQ ID NO: 1 with substitution D343K (protein, listed as Aspergillus terreus)
chain: B1 chain with H343K
modifications: SIGNAL (1)..(19)
B4: D343S: modified GLD: SEQ ID NO: 1 with substitution D343S (protein, listed as Aspergillus terreus)
chain: B1 chain with H343S
modifications: SIGNAL (1)..(19)
B5: D343W: modified GLD: SEQ ID NO: 1 with substitution D343W (protein, listed as Aspergillus terreus)
chain: B1 chain with H343W
modifications: SIGNAL (1)..(19)
B6: G352L: modified GLD: SEQ ID NO: 1 with substitution G352L (protein, listed as Aspergillus terreus)
chain: B1 chain with H343D, G352L
modifications: SIGNAL (1)..(19)
B7: D343Q: modified GLD: SEQ ID NO: 1 with substitution D343Q (protein, listed as Aspergillus terreus)
chain: B1 chain with H343Q
modifications: SIGNAL (1)..(19)
B8: G352R: modified GLD: SEQ ID NO: 1 with substitution G352R (protein, listed as Aspergillus terreus)
chain: B1 chain with H343D, G352R
modifications: SIGNAL (1)..(19)
B9: G352I: modified GLD: SEQ ID NO: 1 with substitution G352I (protein, listed as Aspergillus terreus)
chain: B1 chain with H343D, G352I
modifications: SIGNAL (1)..(19)
B10: G352K: modified GLD: SEQ ID NO: 1 with substitution G352K (protein, listed as Aspergillus terreus)
chain: B1 chain with H343D, G352K
modifications: SIGNAL (1)..(19)
B11: G352N: modified GLD: SEQ ID NO: 1 with substitution G352N (protein, listed as Aspergillus terreus)
chain: B1 chain with H343D, G352N
modifications: SIGNAL (1)..(19)
B12: G352Q: modified GLD: SEQ ID NO: 1 with substitution G352Q (protein, listed as Aspergillus terreus)
chain: B1 chain with H343D, G352Q
modifications: SIGNAL (1)..(19)
B13: D343I: modified GLD: SEQ ID NO: 1 with substitution D343I (protein, listed as Aspergillus terreus)
chain: B1 chain with H343I
modifications: SIGNAL (1)..(19)
B14: G352M: modified GLD: SEQ ID NO: 1 with substitution G352M (protein, listed as Aspergillus terreus)
chain: B1 chain with H343D, G352M
modifications: SIGNAL (1)..(19)
B15: A298V: modified GLD: SEQ ID NO: 1 with substitution A298V (protein, listed as Aspergillus terreus)
chain: B1 chain with A298V, H343D
modifications: SIGNAL (1)..(19)
B16: D343V: modified GLD: SEQ ID NO: 1 with substitution D343V (protein, listed as Aspergillus terreus)
chain: B1 chain with H343V
modifications: SIGNAL (1)..(19)
B17: G352P: modified GLD: SEQ ID NO: 1 with substitution G352P (protein, listed as Aspergillus terreus)
chain: B1 chain with H343D, G352P
modifications: SIGNAL (1)..(19)
B18: D343M: modified GLD: SEQ ID NO: 1 with substitution D343M (protein, listed as Aspergillus terreus)
chain: B1 chain with H343M
modifications: SIGNAL (1)..(19)
B19: D343R: modified GLD: SEQ ID NO: 1 with substitution D343R (protein, listed as Aspergillus terreus)
chain: B1 chain with H343R
modifications: SIGNAL (1)..(19)
B20: D343L: modified GLD: SEQ ID NO: 1 with substitution D343L (protein, listed as Aspergillus terreus)
chain: B1 chain with H343L
modifications: SIGNAL (1)..(19)
B21: V338M: modified GLD: SEQ ID NO: 1 with substitution V338M (protein, listed as Aspergillus terreus)
chain: B1 chain with V338M, H343D
modifications: SIGNAL (1)..(19)
B22: G352F: modified GLD: SEQ ID NO: 1 with substitution G352F (protein, listed as Aspergillus terreus)
chain: B1 chain with H343D, G352F
modifications: SIGNAL (1)..(19)
B23: A298I: modified GLD: SEQ ID NO: 1 with substitution A298I (protein, listed as Aspergillus terreus)
chain: B1 chain with A298I, H343D
modifications: SIGNAL (1)..(19)

Assay: Relative enzymatic activity of GLD (DCIP/1-m-PMS, plate reader, yeast culture supernatant) with proflavin hydrochloride present
Assay type: biochemical
Conditions: site-specific mutants, inhibitor final concentration 1 mM
Procedure: The susceptibility defined in the present specification is evaluated in terms of a relative activity that is determined in a system wherein the inhibitor coexists or not. The relative activity is derived from a relative value (%) of an enzymatic activity (a sample value) obtained with the addition of the inhibitor in the determination of the enzymatic activity described in the present specification as compared with an enzymatic activity (a blank value) as “100%” obtained without the addition of the inhibitor in the same determination. Thus, the higher the relative activity is, the less the susceptibility to the inhibitor is (or the more the susceptibility to the inhibitor is reduced), vice versa.
The enzymatic activity is determined in the following manner in Examples 3 and 6 wherein a plate reader (Japan Molecular Device Corporation, SpectraMax Plus384) is used. Thus, culture supernatant that had been diluted in advance with an appropriate magnification is added to a 96-well microplate with an amount of 100 μl per well. A reagent for the determination of the enzymatic activity comprising phosphate buffer (pH 7.0), 1.0 M D-glucose, 3 mM DCIP, 3 mM 1-m-PMS and methanol with a volume ratio of 0.1:1:0.14:0.2:0.06 is added to the 96-well microplate with an amount of 100 μl per well, and a change in the absorbance of DCIP at 600 nm (ΔABS/min) is then determined. The enzymatic activity can be calculated by conversion in proportion to a change in the absorbance of an enzyme solution for which the enzymatic activity has already been known by the above-mentioned activity determination procedure using the spectrophotometer.
In the following examples, a value of the enzymatic activity determined by the spectrometer or plate reader using the above reagent composition is considered as a blank value. On the other hand, a sample value is determined using a methanol solution comprising the inhibitor such as 1,10-phenanthroline or proflavin hydrochloride at a final concentration of 1 mM instead of the methanol. Enzymatic activity (unit/mL)=(−ΔABS/16.3)×3.0/0.05×(Dilution ratio of enzyme) [Equation 1]

Molecule | Relative Activity [%] Proflavin hydrochloride
B1 | 62.8%
B2 | 55.6%
B3 | 51.8%
B4 | 48.3%
B5 | 57.9%
B6 | 43.7%
B7 | 47.0%
B8 | 68.1%
B9 | 60.9%
B10 | 32.7%
B11 | 55.8%
B12 | 56.4%
B13 | 71.5%
B14 | 45.7%
B15 | 51.2%
B16 | 67.7%
B17 | 49.1%
B18 | 52.9%
B19 | 37.9%
B20 | 73.2%
B21 | 55.0%
B22 | 56.9%
B23 | 43.8%

Assay: Relative enzymatic activity of GLD (DCIP/1-m-PMS, plate reader, yeast culture supernatant) with 1,10-phenanthroline present
Assay type: biochemical
Conditions: site-specific mutants, inhibitor final concentration 1 mM
Outline: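 Yeast transformants grown in YPD, 30° C., 24 h; diluted culture supernatant assayed in phosphate buffer pH 7.0 with D-glucose, DCIP and 1-m-PMS, DCIP absorbance change at 600 nm. Relative activity (%) = activity with 1 mM 1,10-phenanthroline (final, replacing methanol) divided by activity without it.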

Molecule | Relative Activity [%] 1,10-Phenanthroline
B1 | 87.5%
B2 | 96.2%
B3 | 95.9%
B4 | 70.1%
B5 | 94.2%
B6 | 80.7%
B7 | 86.2%
B8 | 80.3%
B9 | 85.5%
B10 | 82.5%
B11 | 80.5%
B12 | 90.4%
B13 | 88.6%
B14 | 74.7%
B15 | 62.2%
B16 | 96.7%
B17 | 89.8%
B18 | 91.2%
B19 | 80.7%
B20 | 100.5%
B21 | 73.6%
B22 | 83.8%
B23 | 73.7%
